In the PETadex activity labels (doi:10.1016/j.enzmictec.2020.109715):

B1: unnamed (protein)
chain: MDGVLWRVRTAALMAALLALAAWALVWASPSVEAQSNPYQRGPNPTRSALTADGPFSVATYTVSRLSVSGFGGGVIYYPTGTSLTFGGIAMSPGYTADASSLAWLGRRLASHGFVVLVINTNSRFDYPDSRASQLSAALNYLRTSSPSAVRARLDANRLAVAGHSMGGGGTLRIAEQNPSLKAAVPLTPWHTDKTFNTSVPVLIVGAEADTVAPVSQHAIPFYQNLPSTTPKVYVELDNASHFAPNSNNAAISVYTISWMKLWVDNDTRYRQFLCNVNDPALSDFRTNNRHCQ
B2: unnamed (protein)
chain: MNFPRASRLMQAAVLGGLMAVSAAATAQTNPYARGPNPTAASLEASAGPFTVRSFTVSRPSGYGAGTVYYPTNAGGTVGAIAIVPGYTARQSSIKWWGPRLASHGFVVITIDTNSTLDQPSSRSSQQMAALRQVASLNGTSSSPIYGKVDTARMGVMGWSMGGGGSLISAANNPSLKAAAPQAPWDSSTNFSSVTVPTLIFACENDSIAPVNSSALPIYDSMSRNAKQFLEINGGSHSCANSGNSNQALIGKKGVAWMKRFMDNDTRYSTFACENPNSTRVSDFRTANCSLEHHHHHH
B3: unnamed (protein)
chain: MQVVLGRVRSAGLLAALLALAAWALVWASPSAEAQSNPYQRGPNPTRSALTTDGPFSVATYSVSRLSVSGFGGGVIYYPTGTTLTFGGIAMSPGYTADASSLAWLGRRLASHGFVVIVINTNSRLDFPDSRASQLSAALNYLRTSSPSAVRARLDANRLAVAGHSMGGGATLRISEQIPTLKAGVPLTPWHTDKTFNTPVPQLIVGAEADTVAPVSQHAIPFYQNLPSTTPKVYVELDNATHFAPNSPNAAISVYTISWMKLWVDNDTRYRQFLCNVNDPALSDFRSNNRHCQ

How the values were obtained:
pNP-C8 [1] = assay: Proxy for plastic degradation [p-nitrophenol (pNP) release] (% relative activity)
pNP-C8 [2] = assay: Proxy for plastic degradation [Relative activity]
PET = assay: Proxy for plastic degradation [Released monomer concentration (HPLC/LC-MS) (MHET+TPA+BHET)]; details: pH 8

Protein	Proxy for plastic degradation (pNP-C8 [1]; pH 3)	Proxy for plastic degradation (pNP-C8 [1]; pH 4)	Proxy for plastic degradation (pNP-C8 [1]; pH 5)	Proxy for plastic degradation (pNP-C8 [1]; pH 6)	Proxy for plastic degradation (pNP-C8 [1]; pH 7)	Proxy for plastic degradation (pNP-C8 [1]; pH 8)	Proxy for plastic degradation (pNP-C8 [1]; pH 8, 5 °C)	Proxy for plastic degradation (pNP-C8 [1]; pH 8, 30 °C)	Proxy for plastic degradation (pNP-C8 [1]; pH 8, 35 °C)	Proxy for plastic degradation (pNP-C8 [1]; pH 9)	Proxy for plastic degradation (pNP-C8 [1]; pH 10)	Proxy for plastic degradation (pNP-C8 [2]; 5 °C) [%]	Proxy for plastic degradation (pNP-C8 [2]; 30 °C) [%]	Proxy for plastic degradation (pNP-C8 [2]; 35 °C) [%]	Proxy for plastic degradation (pNP-C8 [2]; pH 3) [%]	Proxy for plastic degradation (pNP-C8 [2]; pH 4) [%]	Proxy for plastic degradation (pNP-C8 [2]; pH 5) [%]	Proxy for plastic degradation (pNP-C8 [2]; pH 6) [%]	Proxy for plastic degradation (pNP-C8 [2]; pH 7) [%]	Proxy for plastic degradation (pNP-C8 [2]; pH 8) [%]	further results
B1	0	17	69	100	100	89	100	32	47	54	0										
B2												100	80	100	10	20	65	95	98	100	Proxy for plastic degradation (pNP-C8 [2]; pH 9): 95%; Proxy for plastic degradation (pNP-C8 [2]; pH 10): 70%; Proxy for plastic degradation (PET; 30 °C): 1.8 mM; Proxy for plastic degradation (PET; 40 °C): 2.2 mM; Proxy for plastic degradation (PET; 50 °C): 0.8 mM; Proxy for plastic degradation (PET; 60 °C): 0.4 mM; Proxy for plastic degradation (PET; 70 °C): 0.2 mM; Proxy for plastic degradation (PET; 80 °C): 0.1 mM
B3	0	17	69	94	100	100	100	21	30	88	11	100	20	30	0	20	70	95	100	100	Proxy for plastic degradation (pNP-C8 [2]; pH 9): 90%; Proxy for plastic degradation (pNP-C8 [2]; pH 10): 15%; Proxy for plastic degradation (PET; 30 °C): 0 mM; Proxy for plastic degradation (PET; 40 °C): 0.2 mM; Proxy for plastic degradation (PET; 50 °C): 1.1 mM; Proxy for plastic degradation (PET; 60 °C): 3.8 mM; Proxy for plastic degradation (PET; 70 °C): 6.2 mM; Proxy for plastic degradation (PET; 80 °C): 4.9 mM
